The target of experiment [1] is T1, human recombinant adrenomedullin receptor (CRLR + RAMP3) (human). Put plainly: cell-based or functional assay.
The target of experiment [2] is T1, human recombinant adrenomedullin …. Put plainly: cell-based or functional assay. The source holds these as a separate data set.

Read-outs that look alike come from different tables or passages of the source. No end group written: not given here.

T1 sequence (Q16602 whole entry, chain 1 of 2): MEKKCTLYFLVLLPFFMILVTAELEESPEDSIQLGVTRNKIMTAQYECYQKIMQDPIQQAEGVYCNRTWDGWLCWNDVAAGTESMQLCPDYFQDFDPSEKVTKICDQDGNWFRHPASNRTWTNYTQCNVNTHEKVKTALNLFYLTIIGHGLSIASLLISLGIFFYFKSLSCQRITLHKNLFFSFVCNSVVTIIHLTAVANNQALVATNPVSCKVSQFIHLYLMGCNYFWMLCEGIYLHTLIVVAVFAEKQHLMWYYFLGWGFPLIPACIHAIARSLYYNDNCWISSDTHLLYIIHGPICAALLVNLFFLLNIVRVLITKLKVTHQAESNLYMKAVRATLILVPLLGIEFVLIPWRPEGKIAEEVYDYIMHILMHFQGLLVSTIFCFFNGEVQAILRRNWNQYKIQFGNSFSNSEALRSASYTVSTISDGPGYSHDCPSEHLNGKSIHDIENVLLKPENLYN
T1 sequence (O60896 whole entry, chain 2 of 2, further chain): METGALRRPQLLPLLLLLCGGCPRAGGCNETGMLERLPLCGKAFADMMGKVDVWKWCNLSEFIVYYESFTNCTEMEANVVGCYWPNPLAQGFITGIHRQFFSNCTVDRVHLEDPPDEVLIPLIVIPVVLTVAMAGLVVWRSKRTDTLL

Turning to YRQSMNQGSRSNGCRFGTCTFQKLAHQIYQLTDKDKDGMAPRNKISPQGY-NH2 (ends and bridges not checked) [Murine ADM 1-50], the half-maximal effective concentration (EC50 (read off the curve)) (in general, the midpoint of the concentration-response curve) in experiment [1] is around 0.09 nM.

B1: mature human Adrenomedullin (Human ADM 1-52) (peptide)
peptide: YRQSMNNFQGLRSFGCRFGTCTVQKLAHQIYQFTDKDKDNVAPRSKISPQGY-NH2
modifications: ends and bridges not checked
For B1, the “EC50 (read off the curve)” value in experiment [2] is around 1 nM.

Values taken from patent US20200299372A1 (ADRENOMED, published 2020).
